These results are taken from US12497460B2, “Anti-MSR1 antibodies and methods of use thereof” (REGENERON PHARMACEUTICALS, INC., priority 2018, dated 2025).

The target of test [1] is T1, His9-hMSR1 (human MSR1 extracellular domain) (Homo sapiens, UniProt P21757).
T1 construct: human MSR1 extracellular domain expressed with a N-terminal nonahistidine tag; His9 (nonahistidine) (N); purchased R&D Systems 2708-MS
T1 sequence (P21757 77-451 limits assumed): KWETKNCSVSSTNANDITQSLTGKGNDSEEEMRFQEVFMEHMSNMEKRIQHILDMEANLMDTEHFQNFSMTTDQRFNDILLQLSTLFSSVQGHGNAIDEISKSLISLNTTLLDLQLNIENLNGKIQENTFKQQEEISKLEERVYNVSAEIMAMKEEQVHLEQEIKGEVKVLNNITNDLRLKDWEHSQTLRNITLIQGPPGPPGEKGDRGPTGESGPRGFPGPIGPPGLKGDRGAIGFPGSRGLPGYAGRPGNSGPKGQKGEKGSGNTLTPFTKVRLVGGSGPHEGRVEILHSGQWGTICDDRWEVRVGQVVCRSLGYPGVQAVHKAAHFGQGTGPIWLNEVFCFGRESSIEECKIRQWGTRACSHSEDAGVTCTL
Briefly: Biacore T200 surface plasmon resonance binding kinetics of anti-MSR1 antibody-drug conjugates and parental antibodies. Particulars: 25° C. The procedure:
The MSR1 antibodies disclosed herein were conjugated to various liver X receptor (LXR) payloads or various steroid payloads. This example describes how equilibrium dissociation constant (KD) values for human MSR1 reagents binding to human anti-MSR1 antibody-drug conjugates and their corresponding unconjugated parental antibodies were determined using a real-time surface plasmon resonance-based Biacore T200 biosensor.
All binding studies were performed in 10 mM HEPES, 300 mM NaCl, 3 mM EDTA, and 0.05% v/v Surfactant Tween-20, pH 7.4 (HBS-ET) running buffer at 25° C. The Biacore CM4 sensor chip surface was first derivatized by amine coupling with the goat anti-human Fcγ specific polyclonal antibody (Jackson ImmunoResearch Laboratories, Cat #BR-1008-39) to capture anti-MSR1 monoclonal antibodies. Binding studies were performed on human MSR1 extracellular domain expressed with a N-terminal nonahistidine tag (His9-hMSR1; R&D Systems, Cat #2708-MS).
(§1) The association rate (ka) and dissociation rate (kd) were determined by fitting the real-time binding sensorgrams to a 1:1 binding model with mass transport limitation using Scrubber 2.0c curve-fitting software. Binding dissociation equilibrium constant (KD) and dissociative half-life (t½) were calculated from the kinetic rates as: […]
Binding kinetics parameters for His9-hMSR1 binding to different anti-MSR1 antibody-LXR ADCs and their unconjugated parental antibodies at 25° C. are shown in Table 19. “LP1” represents a linker-payload for which the payload structure is provided in Example 11.
The binding studies were repeated with anti-MSR1 antibody H1H21234-N297Q and steroid linker payloads (LPs). “LP3” represents a linker-payload for which the structure is provided in Example 23, and “LP13” represents a linker-payload for which the structure is provided in Example 24.
A general note: Surface plasmon resonance follows binding to a sensor surface in real time, without labels.

Test [2] has as its target HMM-mfMSR1 (monkey MSR1 extracellular domain). Description: Biacore surface plasmon resonance binding kinetics of anti-MSR1 mAbs, antibody-capture format. Particulars: analyte HMM-mfMSR1, NB = no binding observed; for kd: * = no dissociation observed, kd manually fixed at 1.00E−05; for ka: antibody-capture format; for Kd: calculated from kinetic rates; for t½: dissociative half-life. The procedure:
(§2) Binding affinities and kinetic constants of human anti-MSR1 antibodies for different MSR1 reagents were determined by real-time surface plasmon resonance (Biacore 4000). All binding studies were performed in 10 mM HEPES, 150 mM NaCl, 3 mM EDTA, and 0.05% v/v Surfactant Tween-20, pH 7.4 (HBS-ET) running buffer at 25° C. and 37° C.
as §1

The target in test [3] is T1, His9-hMSR1 (human MSR1 extracellular domain). Described as above. The settings on record: analyte His9-hMSR1, NB = no binding observed; for kd: * = no dissociation observed, kd manually fixed at 1.00E−05; for ka: antibody-capture format; for Kd: calculated from kinetic rates; for t½: dissociative half-life. The procedure: as §2, §1
Test [4] addresses T2, PMA-treated THP-1 cells (endogenously expressed human MSR1) (Homo sapiens, UniProt P21757).
T2 construct: endogenous in cells; host or cells: THP-1 cells differentiated with PMA
T2 sequence (P21757 1-451): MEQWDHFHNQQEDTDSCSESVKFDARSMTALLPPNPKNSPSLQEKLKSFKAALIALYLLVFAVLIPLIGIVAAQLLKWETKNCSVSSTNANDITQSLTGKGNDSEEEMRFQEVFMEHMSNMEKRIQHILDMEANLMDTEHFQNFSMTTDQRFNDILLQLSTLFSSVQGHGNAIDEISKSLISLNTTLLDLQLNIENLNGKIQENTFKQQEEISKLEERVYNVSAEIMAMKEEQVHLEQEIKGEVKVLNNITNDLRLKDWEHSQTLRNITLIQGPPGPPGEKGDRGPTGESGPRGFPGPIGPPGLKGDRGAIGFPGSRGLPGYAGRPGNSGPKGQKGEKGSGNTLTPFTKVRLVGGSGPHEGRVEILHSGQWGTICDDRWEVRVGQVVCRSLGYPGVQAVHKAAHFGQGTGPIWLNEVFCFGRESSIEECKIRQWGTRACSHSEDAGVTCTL
Briefly: Electrochemiluminescence antibody binding assay on MSR1-expressing cells. Format: cell-based.

Sequence of HMM-mfMSR1 (monkey MSR1 extracellular domain) (as listed by the source): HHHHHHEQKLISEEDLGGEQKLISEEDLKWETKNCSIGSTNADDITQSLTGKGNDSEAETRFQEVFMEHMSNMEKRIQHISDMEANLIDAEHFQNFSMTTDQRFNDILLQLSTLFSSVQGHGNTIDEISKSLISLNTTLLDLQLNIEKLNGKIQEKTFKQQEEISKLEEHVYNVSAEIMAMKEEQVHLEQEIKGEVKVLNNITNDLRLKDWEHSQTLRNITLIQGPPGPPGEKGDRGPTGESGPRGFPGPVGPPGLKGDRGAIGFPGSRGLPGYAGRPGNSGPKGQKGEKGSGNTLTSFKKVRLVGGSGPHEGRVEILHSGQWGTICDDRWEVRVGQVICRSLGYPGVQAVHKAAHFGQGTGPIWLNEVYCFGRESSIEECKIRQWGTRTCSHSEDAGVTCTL

B1: H1H21234N-N297Q-LP13 (conjugate)
VH: QVQLQESGPGLVKPSETLSLTCTVTGGSISRNYWSWIRQPPGKGLEWIGYIYYSGSIDYNPSLKSRVTISVDTSKNQFSLKLSSMTAADTAVYYCARDRWNWKYGMDVWGQGTTVIVSS
VL: EIVLTQSPGTLSLSPGERATLSCRASQTVRNNYLAWYHQKPGQAPRLLIYGASSRATGIPDRFSGSGSGTDFTLTISRLEPEDFTVYYCHQYGNSPWTFGQGTKMEIKR
In the case of B1, in test [1] (Table 20, antibody-steroid ADCs and unconjugated antibody), the ka worked out at 400000 M⁻¹ s⁻¹. Besides, the kd in test [1] (Table 20, * = no dissociation observed, kd manually fixed at 1.00E−05) was found to be 1e-05 s⁻¹.

B2: H1H21231N: "anti-MSR1 antibodies ... (21227N, 21231N, 21234N) were produced with the original human Fcγ portion"; "H1H" = human IgG1 Fc (antibody, V domains shown)
VH: EVQLVESGGGLVQPGGSLRLSCAASGFTFSDHYMDWVRQAPGKGLEWVGRTRNKANSHTTEYTASVTGRFTISRDDSRNSLYLQMNSLKTEDTAVYYCVRAGIIGTLFDYWGQGTLVTVSS
VL: DIQMTQFPSSLSASVGDRVTITCRASQSISSFLNWFQQKPGKAPKFLIYAASSLQSGVPSRFSGSGSGTDFTLTISSLQPEDFATYYCQQSYSSPPITFGQGTRLEIKR
modifications: human IgG1 Fc
notes: "anti-MSR1 antibodies ; (21227N, 21231N, 21234N) were produced with the original human Fcγ portion"; "H1H" = human IgG1 Fc
Usually Kd stands for the constant that tells how readily two partners part at equilibrium. For orientation: t½ means the time in which the quantity being followed falls by half. For the molecule B2, the kd in test [2] (25° C.) is 6.39e-05 s⁻¹; in test [2] (37° C.), 7.82e-05 s⁻¹; in test [3] (25° C.), 1.00E−05* s^−1; in test [3] (37° C.) it was 9.09e-05 s⁻¹. The ka in test [2] (25° C.) was 274000 M⁻¹ s⁻¹; in test [2] (37° C.) it was 712000 M⁻¹ s⁻¹; in test [3] (25° C.) it was 477000 M⁻¹ s⁻¹; in test [3] (37° C.), 702000 M⁻¹ s⁻¹. For the same molecule, the Kd in test [2] (25° C.) was 0.233 nM; in test [2] (37° C.) it was 0.11 nM; in test [3] (25° C.), 0.021 nM; in test [3] (37° C.), 0.13 nM. The t½ in test [2] (25° C.) stood at 3.02 h; in test [2] (37° C.) it was 2.47 h; in test [3] (25° C.) it was 19.25 h; in test [3] (37° C.) it was 2.12 h. For the same molecule, the “Ratio of 11 nM Antibody Binding Signal (RLU) to isotype control, PMA-treated THP-1” value (“Ratio of 11 nM Antibody Binding Signal” below) in test [4] amounted to 42.

B3: H1H21227N: "anti-MSR1 antibodies ... (21227N, 21231N, 21234N) were produced with the original human Fcγ portion"; "H1H" = human IgG1 Fc (antibody, V domains shown)
VH: QVQLVQSGAEVKKPGASVKVSCKVSGYTLTELSIHWVRQVPGKGLEWMGGFDPEEGETIFAQEFRDRVTLTEDTSPDTAYMELSSLKSEDAAVYYCTTPRYCNNGICYDYWGQGTLVTVSS
VL: DIQMTQSPSSLSASVGDRVTITCRASQSISNYLNWYQQKPGKAPKLLIYTASSLQSGVPSRFSGSGSGTDFTLTISSLQTEDFATYYCQQSYSNFPITFGQGTRLEIKR
modifications: human IgG1 Fc
notes: as for B2
With B3, in test [2] (25° C.), the kd amounted to 4.41e-05 s⁻¹, the ka amounted to 1.27e+06 M⁻¹ s⁻¹, the dissociation constant (Kd) was 0.0348 nM and the t½ was 4.37 h. In addition, in test [2] (37° C.), the kd is reported as 1.00E−05* s^−1, the ka is 2.76e+06 M⁻¹ s⁻¹, the dissociation constant Kd was 0.00362 nM and the t½ was found to be 19.25 h. In test [3] (25° C.), the kd came to 1.44e-05 s⁻¹, the ka was 1.2e+06 M⁻¹ s⁻¹, the Kd is 0.012 nM and the t½ came out at 13.3 h. In test [3] (37° C.), the kd was 1.85e-05 s⁻¹, the ka is 2.56e+06 M⁻¹ s⁻¹, the Kd is 0.00724 nM and the t½ came to 10.4 h. In addition, in test [4], the “Ratio of 11 nM Antibody Binding Signal” value came to 7.

B4: H1H21227N-N297D: "The 21227N antibody was also produced as a third version with a N297D mutation" (antibody, V domains shown)
VH: QVQLVQSGAEVKKPGASVKVSCKVSGYTLTELSIHWVRQVPGKGLEWMGGFDPEEGETIFAQEFRDRVTLTEDTSPDTAYMELSSLKSEDAAVYYCTTPRYCNNGICYDYWGQGTLVTVSS
VL: DIQMTQSPSSLSASVGDRVTITCRASQSISNYLNWYQQKPGKAPKLLIYTASSLQSGVPSRFSGSGSGTDFTLTISSLQTEDFATYYCQQSYSNFPITFGQGTRLEIKR
On to B4, for which the kd in test [2] (25° C.) is 4.03e-05 s⁻¹; in test [2] (37° C.), 2.42e-05 s⁻¹; in test [3] (25° C.), 3.79e-05 s⁻¹; in test [3] (37° C.) it was 1.00E−05* s^−1. The ka in test [2] (25° C.) was found to be 1.35e+06 M⁻¹ s⁻¹; in test [2] (37° C.), 2.68e+06 M⁻¹ s⁻¹; in test [3] (25° C.) it was 1.14e+06 M⁻¹ s⁻¹; in test [3] (37° C.) it was 2.73e+06 M⁻¹ s⁻¹. Besides, the Kd in test [2] (25° C.) was 0.0299 nM; in test [2] (37° C.) it was 0.00903 nM; in test [3] (25° C.), 0.0333 nM; in test [3] (37° C.) it was 0.00366 nM. Besides, the t½ in test [2] (25° C.) was 4.78 h; in test [2] (37° C.), 7.95 h; in test [3] (25° C.), 5.08 h; in test [3] (37° C.), 19.25 h. In test [4], the “Ratio of 11 nM Antibody Binding Signal” value is 6.
